Experimental data as given in paper PMC2836575.

How the values were obtained:
[1] = molecular target: aprataxin FHA domain, recombinant, wild type (human) (UniProt Q7Z2E3); assay: ITC
[2] = molecular target: aprataxin FHA domain, recombinant, Lys38Ala (human) (UniProt Q7Z2E3); assay: ITC

Substance	Kd [1] [µM]	Kd [2] [µM]
MDC1 14-residue peptide phosphorylated only on T331	58	
MDC1 14-residue peptide phosphorylated on S329 and T331	5.6	80
